Test results taken from a protein production outcome set (Wang et al. 2014).

Test: label from the status in PepcDB records

Sequence | protein production
MFVELNNLLNTTPDRAEQGKLTLLCDAKTDGSFLVHHFLSFYLKANCKVCFVALIQSFSHYSIVGQKLGVSLTMARERGQLVFLEGLKSAVDVVFQAQKEPHPLQFLREANAGNLKPLFEFVREALKPVDSGEARWTYPVLLVDDLSVLLSLGMGAVAVLDFIHYCRATVCWELKGNMVVLVHDSGDAEDEENDILLNGLSHQSHLILRAEGLATGFCRDVHGQLRILWRRPSQPAVHRDQSFTYQYKIQDKSVSFFCQRNVSCCSVT | not failed
MFVGREQELASLEEFYAKDGIGMTVIYGRRRIGKSTLITEFVKDKKTVFYTATKIGKARNLELFSKQVLDLFMPGIENISFNSIEAVFDFIDKNIANDKIVLVIDELPYWAEKDDSLLSILQKYIDTIWNDKNLKIILCGSALSFMENKVLSEKSPLFGRRDSQIKLESFNYLDSAKFVPNYSNEDKAICYGITGGVAKYLSMIDPKKNIDENIIRLFFRTDGYLYDETRNLLTQEFSDISLVNNIVEQIASGVNTLNTISGKINEKEPTVLYSLEKLISVGLIEKKKCITEEKNKKKTQYVLKDYMFKFWYEFIPKATSVIEMGQGALYYQKAVKPFLHSFMGSVFEEMCRYYTLNQGITGAYGCFVTSVGTWWGVENITDKNGYIRAQSADIDIVALSDIDKKAVIGECKFKNEKIDKGIYETLVRRGTLISNKYKISKYIFFSLSGYTDWFNSLSDEDVLLLTLDSLYR | failed
MFVIGIPTLNEADNISRLVKQIDEYAVNLGKEIIIINSDSKSTDGTPQIFLETKTYNTKVSIVSEAKGKGYNVRNIFEYAINHVPNFSGLILIDGDVVSMKKMWLEKMFIAIESGNDLIIPNYARKSFEGNATNHFIYPMLVKIFKRDMPYQCISGDFGFSRGLIKDLTLKCNWHKYTLGYGIDIFLTLTAILKSYKIKEIDLQSKIHKKSFEKIEKIFLEVSQSFFETINDNSLNQDKLRLNINFESHSRQFIKSSDILSSNDIENLKLRALFLLQEEKQYLHGLSEVEWDGILSNTINNIYRYSSEEHSLYLLPLYLLRVYNYLKYN | failed
MFVSHGAIVKSAPKHWNGSKCPIRMQVRVPDPDRRSLLRAGAHIILGGLLATVIPGTSPSIAKIREKPTDKGEEAPKIDDEKELDKYVSGLKYEEELYENPDPAEKEVYRTPRVEREPEYKKKEDEILEKESKVLKEEAREAARESEVLRQEFEKR | not failed
MFVVANIVVGIAKILDAILNLYFWVIIAAAVLSWVNPDPYNPVVRVVRNLTEPVFYRVRKWLPFTYVGGLDLSPLVVLLGIQIINSVLVQSLYQLAVRLY | failed
MFWDSSRLIKLIGFFCLLLAQPLHATILSSALLNEAQQLAEIEPAQAKQAAKNYLSQRELTERKESGSPSAMSREETDRSIRTPASTIEAHKIIAQADYTMGNVRSAIDNLNEAEKLAKEYQLPYMTLDVQLMRNQMIWMYDHNYSAAEDALNQIEKQLDEADSVLQRTDSVRYRLVMQRALLAAHRGDNVGAERLYAQAKSMLEDSRSDLALIDYYTSVGEFYLNSKKYNLALSELLYGYWQSIESDSGTRLAKVNRLLARLFQERRVYDKAIEYLSQAADFYDSYPSSPILADVLEQMGDIYFYQGKFNLALVHYFNVLDHESTSRNINRTIKIRLSLAATYLQLYNYALAEQYLERATELLEYADIPQLEAKAALLKSGLAYHQNDSKKVIENAKKALELVEKAPENKNFIKQQSYRLLGLGYEQAGEYQLSLQAYKKYTSLVRLEQKQLNQISEDAFRQQKEFAEQTIHYVGQSERLEQVEMEHRKFQKISFALFITVLVMFLFIMRRGVIMQRQAGEIEKLRNDLFTHSRSRLRNLRMLNVKLSRSLKKSRDTFEQWQMGELIHEPLNDRLRFVMIDLPFLRSMYVQNGYKAGLELERAFGEYLAERIEKPARLYHFSDANLLYIEPNADRDASAEVMFEKFQAWVDEFATQHNVNRIIRMGISDYPFLPRAYTAINDEELLDLLLLATHIAREVSLKDKQSHWVFLKAIDNAPAASFATGNIRTACQHAINQGLIKIHSSYKNEDDIKKILKNG | failed
MGACMKPIGSDGKPIPTPPSLLSFWEVVGVYGRLGLWLGALFIGAVGIFILMDQPPFVQMDWSGLVQQVAAVVALIAIVIPALQVFFALTNRASGSLRPGRYGRLFERRFARFTPQQIEDILQDARAILATMSDSPKRRAWARWVEWLEQRSNLPLAERSGLKIGVYHPRRSKLWIDGAGVALVGALGSWLIWDQRSWMGWAFLGVLGSLFTWGLLATLTERLELSDDSLSYYAFRRQQWSVPRQHVALREAGSSEYQIYDVRTGRLLGEVKGETFGADIVEALADLFPPWLGDEVG | failed
MGAFFMSVVSAFAGAAEACRPTGALQNVEVARVVDGDTVRLRDGRSVRLIGINAPELAHNGRTTEPFAEAAKQRLQALVSASDGRLALQPGRQARDHYGRTLAHLFDASGANLEARLLGEGLGYLVAVAPNTELTACQQAAERAARSANLGVWKRSPVLSLDRLAQSGFAVVRGRVLEVERNRGGIWLEMDGPLVLRIEPKVLKAFDAKRVMQMAGRSLEVRGWVVDRSRRGAVPAGKARWQMSVTDPAMLEWLPLEHHHHHH | failed
MGAIEDIYEDLETDVPEEEFREAVEEKVEQMGGLADEETAAMLLAHELNENEVNAIADIEPGMDEVKFLAKVMAIGDLKTFERDDEDEDGRVINVEAADESGSLRLAFWDGQAVDIDEGKLEVGDVLRVKGRPKDGYNGLEVSVDKAEPDEDATIDVEPGAGSSIDALTMGQSDVTLRGLVLDTDSIRTFDRDDGSEGRVSNLTLGDETGRIRVTLWDDRADRADELDAGAAVEIIDGYVRERDGSLELHVGDQGAVDEVEDDVAFEPDADPIAEVELEETADIAGVVRSADPKRTFDRDDGSEGQVRNVRIQDATGDIRVALWGDKADKDIAPGDEVLAADVEIQDGWQDDKEASASWNSTIVVLDDGADLATGGAGGGASAETTDAEHAGLSSFGDEGDDTDADSSGNEAAAVSAGTGDTSPDGGAQSAGQQVEFTGTVVQTGDPVVLDDGEQTMSVETGERVQLGQEITVRGELRDDRLHAEDVFLEHHHHHH | failed
MGAPPPANEDDRLAALHSYNILDTAPEPLYDDITAAAAQLCRTPMALISLIDQDRQWFKSRVGMQPAETPRDLAFCAHAILQPDQMMEVGDTFVDPRFARNALVTGGPQIRFYAGAPLLTSDGVALGTLCVLDRAPRTLSDAERTALQALARQVVTTIELRQAARLLEGDALRDPLTDLWNREGLEHMLEDAAPVAKLHGLAFVLIEIDGFKRLKLQFGSDAADATLVQAARCIETEPQEPGGVARIGAAHFCMVLPGADSAQALASVQRLQTTIAAACWPADTISITAGLVCVAPGEPLDSHVLMARARHALLGAARAGRNCVQRFDGWQTDR | failed
MGAVGRGRRMSERHLRRSTHKVGDITLGAVHRLNCHCGAVQIDLDLPHGLVDPRRCDCSMCRRRGAIVASVPLQGLHVRQGEDVLRLYQFNTHAAAHYFCGVCGIYTHHRRRSNPNEYGYNVGCLEGVNPYALNITVPVEDGIHHPADRVAPQLEHHHHHH | failed
MGAVVVEPGSSSMVLGPEQVLDRASMHLANGLLGNPDSAAGLEVLLGGLKLRFVSGSAVAVTGAEGMVTLDGTELPLNKAVRVPPGAVLELGPAMFGIRYYLAVQGGISAQGEAAQGEAIRAGAALTFGRPNNHGSPEVNHPARRALDPERPVVARVSRGPQAQNDDAGTWLRLTSEPWILSPESDRAGARLVGRPLDVTSAPIPQAQPLVSGSVLLPSSGLPVIALAGHPDTSQSPVIAVVRDEDLDVLGQARPGQMVHLLG | failed
MGAWRFWWDSTRRFYKNWGSYVALIFSTNLVISYLAIPFFNWVLEMLLKWQRVSYVSYTNIGSIIIHQPLAALGMVAILLAIIILVYWQFAFLLLGIMNIFRGRPQTVRAVLRSTVTSLTGTSPSTFLFFIGYFIVILPFGSFIFTTPLLNKAKIPAFIVSYLMENPWMTLGLGCFYLLAGYLGIRLISLLPLMIVDRLPWKTAVTRSWQQTRHHLWRYLWTMIVTLFMIFLIVTTIYTLIYVAQLQFDKTSFAMAAATVNLFIMEAITEIIICYTTAIFMMLIIVCYRQDFTLLRQQPQYFNEAPRLRKLTRASVAIGLLLATSLLVAVNLVYLNGLVITKPIMISHRGVDNGNGVQNTIPALIKTSKEHPDYVEMDIQVTKDHQFVVMHDPTLKALAGVKKKPSQLTLKQLEKITVRENGYQAKIPSFDAYLKAAHKHHQKLLVEIKTSSAYTAADTKRFIDRYGATLLAHHDQVHTLSFKVMRDLKRLDQKQFVSYILPYNLTFPHTVANGYTMEVTTLNDQFVDKADRNHKTVYAWDIDNTDQMDQMMFMGVTGVVTDNLTEMQQEVKSNTDHPSYAKLLLTFMNELSLTSNE | failed
